# pEC50: −log10 of the molar value.
# Assays:
# [1] = molecular target: synthetic Aβ1-42 peptide (aggregated in the ELISAs) (human) (UniProt P05067); assay: ELISA on aggregated synthetic Aβ1-42; given as ED50
# [2] = molecular target: soluble [125I]Aβ1-42 (synthetic Aβ1-42 sonicated in DMSO, radio-iodinated) (human) (UniProt P05067); assay: capture radioimmunoassay, 50,000 CPM of 125I-Aβ1-42 (or 125I-Aβ1-40), antibody at 10 µg/ml
Substance,pEC50 [1],% of radioactive counts bound at 10 µg/ml [2]
antibody 12B4 (IgG2a),9.18,7%
antibody 10D5 (IgG1),10.28,2%

# Reference: patent US20050118651A1
